Measured values reported in article doi:10.1101/2022.01.14.476386 (bioRxiv, 2022).

Assays:
[1] = target: T1, eukaryotic initiation factor 4E (eIF4E) (UniProt P06730 1-217); test: fluorescence correlation spectroscopy
[2] = target: T1, eukaryotic initiation factor 4E (eIF4E); test: fluorescence anisotropy decay

T1 sequence (P06730 whole entry): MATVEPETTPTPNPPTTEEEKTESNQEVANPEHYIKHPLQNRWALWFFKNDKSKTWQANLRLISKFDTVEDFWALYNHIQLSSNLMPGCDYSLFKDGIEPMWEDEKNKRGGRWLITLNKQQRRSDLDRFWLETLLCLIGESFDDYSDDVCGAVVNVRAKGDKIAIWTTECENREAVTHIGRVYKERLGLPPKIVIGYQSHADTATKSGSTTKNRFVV

Row | Binder | binding result [1] | binding result [2]
1 | 4E-BP2 C121 (C35S/C73S/C121ins), non-phosphorylated, labelled with Atto488 at position 121 (natural protein, UniProt Q13542 1-120, looked up, Atto488 maleimide on the inserted cysteine at position 121) MSSSAGSGHQPSQSRAIPTRTVAISDAAQLPHDYSTTPGGTLFSTTPGGTRIIYDRKFLLDRRNSPMAQTPPSHLPNIPGVTSPGTLIEDSKVEVNNLNNLNNHDRKHAVGDDAQFEMDIC | binds | 
2 | 4E-BP2 C91 (C35S/C73S/S91C), non-phosphorylated, labelled with Atto488 at position 91 (natural protein, UniProt Q13542 1-120, looked up, Atto488 maleimide on cysteine 91) MSSSAGSGHQPSQSRAIPTRTVAISDAAQLPHDYSTTPGGTLFSTTPGGTRIIYDRKFLLDRRNSPMAQTPPSHLPNIPGVTSPGTLIEDCKVEVNNLNNLNNHDRKHAVGDDAQFEMDI | binds | 
3 | 4E-BP2 C73 (C35S), non-phosphorylated, labelled with Atto488 at position 73 (natural protein, UniProt Q13542 1-120, looked up, Atto488 maleimide on cysteine 73) MSSSAGSGHQPSQSRAIPTRTVAISDAAQLPHDYSTTPGGTLFSTTPGGTRIIYDRKFLLDRRNSPMAQTPPCHLPNIPGVTSPGTLIEDSKVEVNNLNNLNNHDRKHAVGDDAQFEMDI | binds | 
4 | 4E-BP2 C14 (S14C/C35S/C73S), non-phosphorylated, labelled with Atto488 at position 14 (natural protein, UniProt Q13542 1-120, looked up, Atto488 maleimide on cysteine 14) MSSSAGSGHQPSQCRAIPTRTVAISDAAQLPHDYSTTPGGTLFSTTPGGTRIIYDRKFLLDRRNSPMAQTPPSHLPNIPGVTSPGTLIEDSKVEVNNLNNLNNHDRKHAVGDDAQFEMDI |  | binds
5 | 4E-BP2 C35 (C73S), non-phosphorylated, labelled with Atto488 at position 35 (natural protein, UniProt Q13542 1-120, looked up, Atto488 maleimide on cysteine 35) MSSSAGSGHQPSQSRAIPTRTVAISDAAQLPHDYCTTPGGTLFSTTPGGTRIIYDRKFLLDRRNSPMAQTPPSHLPNIPGVTSPGTLIEDSKVEVNNLNNLNNHDRKHAVGDDAQFEMDI |  | binds
